Test results as given in patent US20260091143A1, “NEAR-INFRARED IMAGING AGENT AND USES THEREOF” (CASE WESTERN RESERVE UNIVERSITY, priority 2022, published 2026).
Where a SMILES comes first, the peptide text is derived from it. Where no end group is shown, it is not given here. The star is where a group is joined. X1 = CC1(C)C(/C=C/C=C/C=C/C=C2/N(CCCCCC(=O)*)c3ccc4ccccc4c3C2(C)C)=[N+](CCCCS(=O)(=O)[O-])c2ccc3ccccc3c21; Tide Fluor 8WS = fluorophore acid, coupled by amide to the N-terminal amine

Experiments:
[1] = Whole-body and ventral fluorescent imaging of biodistribution and clearance; type: in vivo, mice
From the text: (§1) The IVIS Spectrum In vivo Imaging System and Living Image analysis software, (Perkin Elmer, Hopkinton, MA, USA) were used for acquisition and analysis of mouse images. Prior to the experiment, mice were weighed, and baseline images acquired using the appropriate filter sets and the autoexposure setting. Three filter sets for excitation/emission were used: 745 nm/800 nm, 745 nm/820 nm, 745 nm/840 nm. The filter set showing highest fluorescence intensity for a fluorophore was used throughout for that dye. For ICG, 745 nm/820 nm was used and for IRDye® 800CW and Tide Fluor™ 8WS, 745 nm/800 nm was used. Agent stocks were diluted in saline or PBS to ˜100 μM and the volume needed for the desired dose of 300 nmol/kg or 400 nmol/kg calculated. Doses were loaded into polyurethane tubing and connected to a 1 mL syringe as previously described. Mice were anesthetized in an induction chamber with 2% isoflurane-oxygen and moved onto a 37° C. heated platform with a nose cone. 26-gauge veterinary catheters were placed in each tail and the preloaded tubing was connected. Agents were injected over 30 sec, catheters were removed, and animals placed in the prepared Spectrum imaging chamber. Images were acquired beginning 10 min after injecting the agents. For SBK2-CCLE-IR800 and Scram-CCLE-IR800, images were acquired every 10 min for 60 min. For the ICG-labeled and TF8WS-labeled peptides, images were acquired at 10 min, 30 min, 1 h, 2 h, 4 h, 8 h, and 24 h. At the end of the imaging time, the animals were euthanized by CO2 asphyxiation, and the tumor and other organs excised and imaged on the Spectrum.

[2] = Ex vivo fluorescence in excised kidneys, spleen and liver; design: species or system mice; details: 24 h; for p-value, average radiant efficiency of excised kidney vs SBK2-ICG / p-value, average radiant efficiency of excised kidney vs Scram-CLE-ICG / p-value, average radiant efficiency of excised kidney vs Scram-ICG / p-value, average radiant efficiency of excised liver vs SBK2-ICG / p-value, average radiant efficiency of excised liver vs Scram-CLE-ICG / p-value, average radiant efficiency of excised liver vs Scram-ICG / p-value, average radiant efficiency of excised spleen vs SBK2-ICG / p-value, average radiant efficiency of excised spleen vs Scram-CLE-ICG / p-value, average radiant efficiency of excised spleen vs Scram-ICG / p-value, average radiant efficiency of excised kidney vs SBK2-CLE-ICG / p-value, average radiant efficiency of excised liver vs SBK2-CLE-ICG / p-value, average radiant efficiency of excised spleen vs SBK2-CLE-ICG: ICG-labeled agents 300 nmol/kg, ICG 400 nmol/kg, Welch's t-test
From the text: as §1
(§2) Living Image analysis software was used for region of interest (ROI) analysis of the optical data. Images acquired for each time point consist of a fluorescent image superimposed on a photographic image. Binning was set to 1 and in vivo tumor ROIs were manually drawn based on contours visible in the black and white photograph for each timepoint. After outlining the tumor ROIs, fluorescence was measured with the built-in Spectrum function. For excised tumors, kidneys, spleen and liver, ROIs were drawn around the perimeter of the tumor or organ.
(§3) LivingImage software measures fluorescence intensity in units of radiant efficiency. For these analyses, average radiant efficiency measurements in (photons/s/cm^2/steradian)/(μW/cm^2) were used for further comparisons to account for differences in tumor and organ size. GraphPad Prism 9 was used for plots and statistical analyses. Where indicated, means for pairs of agents were compared using a two-tailed t-test with Welch's correction and statistical significance was assumed at p<0.05. Welch's correction was used to eliminate assumptions about variance between the groups being compared.

[3] = tested on: LN-229 glioma flank tumor; test: In vivo fluorescent imaging of tumor signal in LN-229 flank tumor-bearing nude mice; details: 400 nmol/kg
From the text: All applicable institutional and/or NIH guidelines for the care and use of animals were followed. The Case Western Reserve University Institutional Animal Care and Use Committee reviewed and approved the animal protocols. Outbred homozygous female nude mice (Fox1^nu/Fox1^nu) were purchased from Jackson Laboratory, Bar Harbor, ME, USA. Details of the human glioblastoma LN-229 cell line have been described previously. LN-229 cells express the PTPμ biomarker and have been used in previous studies for evaluating PTPμ-targeted agents using different imaging modalities. Flank tumors were started in the right flank of mice at approximately 7 weeks of age by injecting a mixture of 2×10^6 cells and Matrigel® Matrix (Corning®, Corning Inc., Corning, NY, USA). Experiments were performed in mice 4 to 8 weeks after implanting the tumors.
as §1, §2, §3

Row | Compound | p-value, average radiant efficiency of excised kidney vs SBK2-ICG [2] | p-value, average radiant efficiency of excised kidney vs Scram-CLE-ICG [2] | p-value, average radiant efficiency of excised kidney vs Scram-ICG [2] | p-value, average radiant efficiency of excised liver vs SBK2-ICG [2] | p-value, average radiant efficiency of excised liver vs Scram-CLE-ICG [2] | p-value, average radiant efficiency of excised liver vs Scram-ICG [2] | p-value, average radiant efficiency of excised spleen vs SBK2-ICG [2] | p-value, average radiant efficiency of excised spleen vs Scram-CLE-ICG [2] | p-value, average radiant efficiency of excised spleen vs Scram-ICG [2] | p-value, average radiant efficiency of excised kidney vs SBK2-CLE-ICG [2] | p-value, average radiant efficiency of excised liver vs SBK2-CLE-ICG [2] | p-value, average radiant efficiency of excised spleen vs SBK2-CLE-ICG [2] | also measured
1 | CC1(C)C(=CC=C2CCCC(C=CC3=[N+](CCCCCC(=O)[O-])c4ccc(S(=O)(=O)[O-])cc4C3(C)C)=C2Oc2ccc(S(=O)(=O)[O-])cc2)N(CCCCS(=O)(=O)[O-])c2ccc(S(=O)(=O)[O-])cc21.[Na+].[Na+].[Na+].[Na+] [IRDye® 800CW] | – | – | – | – | – | – | – | – | – | – | – | – | clearance compared to the peptide-containing agents ([1]; dye only, data not shown): cleared more slowly; overall body fluorescence compared to IRDye 800CW-labeled peptides at the same dose ([1]; dye only, data not shown): more overall fluorescence throughout the body
2 | CC(C)C[C@H](NC(=O)[C@@H](NC(=O)[C@H](CC(N)=O)NC(=O)[C@@H](NC(=O)[C@H](CCC(N)=O)NC(=O)[C@H](CCC(=O)O)NC(=O)[C@H](Cc1c[nH]c2ccccc12)NC(=O)[C@H](CC(N)=O)NC(=O)[C@H](Cc1ccccc1)NC(=O)[C@H](CC(=O)O)NC(=O)[C@H](CC(=O)O)NC(=O)CNC(=O)[C@H](CCC(=O)O)NC(=O)CNC(=O)[C@H](CO)NC(=O)CNC(=O)CNC(=O)[C@H](CO)NC(=O)CNC(=O)CNC(=O)CCCCCN1/C(=C/C=C/C=C/C=C/C2=[N+](CCCCS(=O)(=O)[O-])c3ccc4ccccc4c3C2(C)C)C(C)(C)c2c1ccc1ccccc21)C(C)C)[C@@H](C)O)C(=O)N[C@H](C(=O)N[C@@H](CCCCN)C(=O)N1CCC[C@H]1C(=O)N[C@H](C(=O)N[C@@H](CO)C(=O)N[C@@H](CC(=O)O)C(=O)O)[C@@H](C)O)[C@@H](C)O [SBK2-CLE-ICG] (X1-GGSGGSGEGDDFNWEQVNTLTKPTSD-OH) | <0.001 | 0.034 | ns | <0.001 | ns | ns | <0.001 | 0.015 | ns | – | – | – | clearance compared to SBK2-ICG ([1]; mouse, in vivo): cleared more rapidly
3 | CC(C)C[C@H](NC(=O)[C@@H](NC(=O)[C@H](CC(N)=O)NC(=O)[C@@H](NC(=O)[C@H](CCC(N)=O)NC(=O)[C@H](CCC(=O)O)NC(=O)[C@H](Cc1c[nH]c2ccccc12)NC(=O)[C@H](CC(N)=O)NC(=O)[C@H](Cc1ccccc1)NC(=O)[C@H](CC(=O)O)NC(=O)[C@H](CC(=O)O)NC(=O)CNC(=O)[C@H](CCC(=O)O)NC(=O)CNC(=O)CCCCCN1/C(=C/C=C/C=C/C=C/C2=[N+](CCCCS(=O)(=O)[O-])c3ccc4ccccc4c3C2(C)C)C(C)(C)c2c1ccc1ccccc21)C(C)C)[C@@H](C)O)C(=O)N[C@H](C(=O)N[C@@H](CCCCN)C(=O)N1CCC[C@H]1C(=O)N[C@H](C(=O)N[C@@H](CO)C(=O)N[C@@H](CC(=O)O)C(=O)O)[C@@H](C)O)[C@@H](C)O [SBK2-ICG] (X1-GEGDDFNWEQVNTLTKPTSD-OH) | – | <0.001 | <0.001 | – | <0.001 | <0.001 | – | <0.001 | <0.001 | <0.001 | <0.001 | <0.001 | –
4 | CC(C)C[C@H](NC(=O)[C@H](CC(=O)O)NC(=O)[C@H](CC(N)=O)NC(=O)[C@H](CC(=O)O)NC(=O)[C@@H](NC(=O)CNC(=O)[C@@H](NC(=O)[C@H](CCC(=O)O)NC(=O)[C@@H]1CCCN1C(=O)[C@H](CCC(N)=O)NC(=O)[C@@H](NC(=O)[C@H](Cc1ccccc1)NC(=O)CNC(=O)[C@H](CO)NC(=O)CNC(=O)CNC(=O)[C@H](CO)NC(=O)CNC(=O)CNC(=O)CCCCCN1/C(=C/C=C/C=C/C=C/C2=[N+](CCCCS(=O)(=O)[O-])c3ccc4ccccc4c3C2(C)C)C(C)(C)c2c1ccc1ccccc21)[C@@H](C)O)[C@@H](C)O)[C@@H](C)O)C(=O)N[C@@H](Cc1c[nH]c2ccccc12)C(=O)N[C@@H](CO)C(=O)N[C@H](C(=O)N[C@@H](CC(=O)O)C(=O)N[C@@H](CC(N)=O)C(=O)N[C@@H](CCC(=O)O)C(=O)N[C@@H](CCCCN)C(=O)O)C(C)C [Scram-CLE-ICG] (X1-GGSGGSGFTQPETGTDNDLWSVDNEK-OH) | <0.001 | – | ns | <0.001 | – | ns | <0.001 | – | ns | 0.034 | ns | 0.015 | –
5 | CC(C)C[C@H](NC(=O)[C@H](CC(=O)O)NC(=O)[C@H](CC(N)=O)NC(=O)[C@H](CC(=O)O)NC(=O)[C@@H](NC(=O)CNC(=O)[C@@H](NC(=O)[C@H](CCC(=O)O)NC(=O)[C@@H]1CCCN1C(=O)[C@H](CCC(N)=O)NC(=O)[C@@H](NC(=O)[C@H](Cc1ccccc1)NC(=O)CNC(=O)CCCCCN1/C(=C/C=C/C=C/C=C/C2=[N+](CCCCS(=O)(=O)[O-])c3ccc4ccccc4c3C2(C)C)C(C)(C)c2c1ccc1ccccc21)[C@@H](C)O)[C@@H](C)O)[C@@H](C)O)C(=O)N[C@@H](Cc1c[nH]c2ccccc12)C(=O)N[C@@H](CO)C(=O)N[C@H](C(=O)N[C@@H](CC(=O)O)C(=O)N[C@@H](CC(N)=O)C(=O)N[C@@H](CCC(=O)O)C(=O)N[C@@H](CCCCN)C(=O)O)C(C)C [Scram-ICG] (X1-GFTQPETGTDNDLWSVDNEK-OH) | <0.001 | ns | – | <0.001 | ns | – | <0.001 | ns | – | ns | ns | ns | clearance compared to either of the CLE-containing agents ([1]; 400 nmol/kg, 24 h): clear more slowly
6 | SBK2-TF8WS: Tide Fluor 8WS conjugated via amide to N-terminus of SBK2 peptide (SEQ ID NO: 5) ({Tide Fluor 8WS}-GEGDDFNWEQVNTLTKPTSD) | – | – | – | – | – | – | – | – | – | – | – | – | tumor signal at 24 h (not specific for PTPμ) [3]: high tumor-specific signal; difference in in vivo tumor average radiant efficiency vs Scram-TF8WS ([3]; at any time out to 24 h): No significant differences; specific tumor labeling ([3]; versus Scrambled control agents): no specific tumor labeling; difference in average radiant efficiency in kidney, spleen, or liver vs Scram-TF8WS ([2]; 400 nmol/kg): no significant differences
7 | Scram-TF8WS: Tide Fluor 8WS conjugated to N-terminus of Scrambled control peptide (SEQ ID NO: 48) ({Tide Fluor 8WS}-GFTQPETGTDNDLWSVDNEK) | – | – | – | – | – | – | – | – | – | – | – | – | tumor signal at 24 h (not specific for PTPμ) [3]: high tumor-specific signal
